Results reported in the supplement of paper PMC9112550, “Optimization of the antimicrobial peptide Bac7 by deep mutational scanning” (BMC Biology, 2022).

Test system: Escherichia coli TOP10
Assay: shrunken log2 fold change of peptide-encoding DNA abundance (4.5 h post-induction vs induction); higher = less antimicrobial activity (less host growth inhibition)
Details: time post-induction: 4.5 h; library: site-saturation at positions 5, 18, 19, 20
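Note: peptides expressed intracellularly from a pBAD plasmid library in pooled LB shake-flask culture, induced with 0.3% L-arabinose, DNA abundance read by NGS, three biological replicates, DESeq2 with apeglm shrinkage.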

Sequence	shrunken log2 fold change
RRIRQRPPRLPRPRPRPRWFPRP	0.0284
RRIRQRPPRLPRPRPRPRWHPRP	0.197
RRIRQRPPRLPRPRPRPRWWPRP	0.417
RRIRQRPPRLPRPRPRPRYYPRP	-0.465
RRIRQRPPRLPRPRPRPSCSPRP	-0.111
RRIRQRPPRLPRPRPRPSDAPRP	0.147
RRIRQRPPRLPRPRPRPSEWPRP	-0.0519
RRIRQRPPRLPRPRPRPSEYPRP	-0.44
RRIRQRPPRLPRPRPRPSFQPRP	-0.467
RRIRQRPPRLPRPRPRPSFRPRP	-0.578
RRIRQRPPRLPRPRPRPSFYPRP	-0.653
RRIRQRPPRLPRPRPRPSHMPRP	0.109
RRIRQRPPRLPRPRPRPSKCPRP	-0.719
RRIRQRPPRLPRPRPRPSKWPRP	-0.351
RRIRQRPPRLPRPRPRPSMSPRP	-0.393
RRIRQRPPRLPRPRPRPSMYPRP	-1.39
RRIRQRPPRLPRPRPRPSNFPRP	-0.621
RRIRQRPPRLPRPRPRPSPGPRP	0.194
RRIRQRPPRLPRPRPRPSQKPRP	0.0595
RRIRQRPPRLPRPRPRPSQLPRP	0.0128
RRIRQRPPRLPRPRPRPSQVPRP	-0.23
RRIRQRPPRLPRPRPRPSQYPRP	-0.244
RRIRQRPPRLPRPRPRPSRVPRP	-0.00679
RRIRQRPPRLPRPRPRPSSAPRP	2.99
RRIRQRPPRLPRPRPRPSSHPRP	0.0105

Sequence	shrunken log2 fold change
RRIRQRPPRLPRPRPRPSTRPRP	0.00434
RRIRQRPPRLPRPRPRPSVDPRP	-0.00902
RRIRQRPPRLPRPRPRPSVIPRP	-0.656
RRIRQRPPRLPRPRPRPSYMPRP	-0.301
RRIRQRPPRLPRPRPRPSYYPRP	-0.356
RRIRQRPPRLPRPRPRPTCYPRP	-0.309
RRIRQRPPRLPRPRPRPTDRPRP	0.0938
RRIRQRPPRLPRPRPRPTESPRP	0.105
RRIRQRPPRLPRPRPRPTGEPRP	0.0647
RRIRQRPPRLPRPRPRPTKKPRP	-0.0835
RRIRQRPPRLPRPRPRPTKLPRP	-0.0369
RRIRQRPPRLPRPRPRPTKNPRP	0.0334
RRIRQRPPRLPRPRPRPTMGPRP	-0.0283
RRIRQRPPRLPRPRPRPTMHPRP	-0.0393
RRIRQRPPRLPRPRPRPTNDPRP	-0.296
RRIRQRPPRLPRPRPRPTPMPRP	2.6
RRIRQRPPRLPRPRPRPTRAPRP	0.647
RRIRQRPPRLPRPRPRPTRPPRP	1.05
RRIRQRPPRLPRPRPRPVAMPRP	0.0794
RRIRQRPPRLPRPRPRPVCLPRP	-0.161
RRIRQRPPRLPRPRPRPVDEPRP	-0.249
RRIRQRPPRLPRPRPRPVDQPRP	0.0619
RRIRQRPPRLPRPRPRPVFAPRP	0.164
RRIRQRPPRLPRPRPRPVFFPRP	0.0102
RRIRQRPPRLPRPRPRPVHCPRP	-0.166

Sequence	shrunken log2 fold change
RRIRQRPPRLPRPRPRPVISPRP	0.0289
RRIRQRPPRLPRPRPRPVNLPRP	-0.014
RRIRQRPPRLPRPRPRPVNTPRP	-0.0633
RRIRQRPPRLPRPRPRPVPMPRP	0.132
RRIRQRPPRLPRPRPRPVRQPRP	0.0135
RRIRQRPPRLPRPRPRPVRVPRP	0.686
RRIRQRPPRLPRPRPRPVSKPRP	-0.014
RRIRQRPPRLPRPRPRPVSWPRP	1.47
RRIRQRPPRLPRPRPRPVTGPRP	0.0279
RRIRQRPPRLPRPRPRPVWPPRP	0.303
RRIRQRPPRLPRPRPRPVYGPRP	-0.258
RRIRQRPPRLPRPRPRPWACPRP	-0.0783
RRIRQRPPRLPRPRPRPWAMPRP	-0.0161
RRIRQRPPRLPRPRPRPWAWPRP	-0.0707
RRIRQRPPRLPRPRPRPWCLPRP	-0.275
RRIRQRPPRLPRPRPRPWDPPRP	-0.327
RRIRQRPPRLPRPRPRPWFEPRP	-0.00226
RRIRQRPPRLPRPRPRPWGYPRP	-0.166
RRIRQRPPRLPRPRPRPWIFPRP	-0.0561
RRIRQRPPRLPRPRPRPWIYPRP	0.0039
RRIRQRPPRLPRPRPRPWKFPRP	0.0543
RRIRQRPPRLPRPRPRPWLTPRP	-0.13
RRIRQRPPRLPRPRPRPWLVPRP	-0.0624
RRIRQRPPRLPRPRPRPWLYPRP	-0.0636
RRIRQRPPRLPRPRPRPWMFPRP	-0.374

Sequence	shrunken log2 fold change
RRIRQRPPRLPRPRPRPWMQPRP	-0.062
RRIRQRPPRLPRPRPRPWMVPRP	-0.0803
RRIRQRPPRLPRPRPRPWNHPRP	-0.0081
RRIRQRPPRLPRPRPRPWNQPRP	-0.0236
RRIRQRPPRLPRPRPRPWQHPRP	-0.0358
RRIRQRPPRLPRPRPRPWQPPRP	-0.00999
RRIRQRPPRLPRPRPRPWRWPRP	-0.0392
RRIRQRPPRLPRPRPRPWTFPRP	-0.0125
RRIRQRPPRLPRPRPRPWTKPRP	-0.00887
RRIRQRPPRLPRPRPRPWTNPRP	-0.00183
RRIRQRPPRLPRPRPRPWTSPRP	0.0602
RRIRQRPPRLPRPRPRPWWNPRP	-0.123
RRIRQRPPRLPRPRPRPWWRPRP	0.0847
RRIRQRPPRLPRPRPRPWYHPRP	-0.32
RRIRQRPPRLPRPRPRPYDQPRP	0.0352
RRIRQRPPRLPRPRPRPYEAPRP	-0.0514
RRIRQRPPRLPRPRPRPYGKPRP	-0.217
RRIRQRPPRLPRPRPRPYGMPRP	-0.549
RRIRQRPPRLPRPRPRPYHEPRP	-0.288
RRIRQRPPRLPRPRPRPYIVPRP	0.04
RRIRQRPPRLPRPRPRPYKIPRP	-0.568
RRIRQRPPRLPRPRPRPYKQPRP	0.0225
RRIRQRPPRLPRPRPRPYMMPRP	0.00408
RRIRQRPPRLPRPRPRPYMTPRP	-0.122
RRIRQRPPRLPRPRPRPYNLPRP	-0.00751

Sequence	shrunken log2 fold change
RRIRQRPPRLPRPRPRPYPAPRP	-0.289
RRIRQRPPRLPRPRPRPYPFPRP	-0.035
RRIRQRPPRLPRPRPRPYPIPRP	-0.00931
RRIRQRPPRLPRPRPRPYQMPRP	-0.00133
RRIRQRPPRLPRPRPRPYREPRP	-0.0135
RRIRQRPPRLPRPRPRPYRNPRP	-0.0521
RRIRQRPPRLPRPRPRPYSAPRP	-0.00273
RRIRQRPPRLPRPRPRPYTPPRP	-0.856
RRIRQRPPRLPRPRPRPYWFPRP	0.00499
RRIRQRPPRLPRPRPRPYWPPRP	-0.11
RRIRQRPPRLPRPRPRPYYLPRP	-0.253
RRIRQRPPRLPRPRPRPYYNPRP	-0.392
RRIRRRPPRLPRPRPRPAAEPRP	0.845
RRIRRRPPRLPRPRPRPACCPRP	0.714
RRIRRRPPRLPRPRPRPAEFPRP	0.0257
RRIRRRPPRLPRPRPRPAEQPRP	0.275
RRIRRRPPRLPRPRPRPAETPRP	-0.0645
RRIRRRPPRLPRPRPRPAEWPRP	0.136
RRIRRRPPRLPRPRPRPAEYPRP	0.0756
RRIRRRPPRLPRPRPRPAFDPRP	0.522
RRIRRRPPRLPRPRPRPAFFPRP	0.58
RRIRRRPPRLPRPRPRPAFIPRP	0.115
RRIRRRPPRLPRPRPRPAGCPRP	0.437
RRIRRRPPRLPRPRPRPAKAPRP	0.12
RRIRRRPPRLPRPRPRPAKEPRP	0.0389

Sequence	shrunken log2 fold change
RRIRRRPPRLPRPRPRPAKVPRP	0.0346
RRIRRRPPRLPRPRPRPALVPRP	0.74
RRIRRRPPRLPRPRPRPAMNPRP	0.0496
RRIRRRPPRLPRPRPRPAMQPRP	0.423
RRIRRRPPRLPRPRPRPAPAPRP	1.1
RRIRRRPPRLPRPRPRPAPKPRP	0.905
RRIRRRPPRLPRPRPRPARDPRP	0.185
RRIRRRPPRLPRPRPRPARFPRP	0.709
RRIRRRPPRLPRPRPRPARNPRP	3.18
RRIRRRPPRLPRPRPRPARTPRP	0.35
RRIRRRPPRLPRPRPRPARWPRP	1.13
RRIRRRPPRLPRPRPRPASMPRP	0.0911
RRIRRRPPRLPRPRPRPASYPRP	-0.111
RRIRRRPPRLPRPRPRPATYPRP	-0.0435
RRIRRRPPRLPRPRPRPAVCPRP	0.66
RRIRRRPPRLPRPRPRPAVFPRP	0.45
RRIRRRPPRLPRPRPRPAWMPRP	0.24
RRIRRRPPRLPRPRPRPAYEPRP	0.138
RRIRRRPPRLPRPRPRPAYWPRP	0.135
RRIRRRPPRLPRPRPRPCAIPRP	3.08
RRIRRRPPRLPRPRPRPCCAPRP	0.372
RRIRRRPPRLPRPRPRPCDHPRP	0.0118
RRIRRRPPRLPRPRPRPCDWPRP	0.156
RRIRRRPPRLPRPRPRPCEHPRP	-0.212
RRIRRRPPRLPRPRPRPCEPPRP	-0.0751
